Experimental data taken from patent US20230374534, “TRANSGENIC PLANT HAVING COLD RESISTANCE OVEREXPRESSING THIOREDOXIN TRX-H2 PROTEIN” (INDUSTRY-ACADEMIC COOPERATION FOUNDATION GYEONGSANG …, published 2023).

Experiments:
[1] = target: CBF1 (Arabidopsis thaliana, UniProt P93835 SEQ:1-213); assay: EMSA; 1 mM DTT (reducing), poly(dI-dC), 25 C, 30 min; binding redox-dependent; gel only in figure; conditions: tags: His (pET28a, E. coli); label: biotin
Procedure: FIGS. 3A to 3D are the results of EMSAs showing the redox-dependent binding of His-CBF1 to biotin-labeled COR15a promoter fragment (oligoprobe) in the presence of 1 mM DTT (FIG. 3A), 1 mM H₂O₂ (FIG. 3B), and a Trx system comprising 5 μM Trx-h2 (FIG. 3C) or Trx-h2(C/S) (FIG. 3D) with His-MBP as a control. FIG. 3E is the schematic representation of the COR15a promoter. P1 and P2 indicate the primer binding sites for qRT-PCR. […] (FIG. 3F) or 4° C. (FIG. 3G) for 6 h.
To carry out EMSAs, a biotin-labeled oligonucleotide probe (Table 1) was processed using a lightshift™ chemiluminescent EMSA Kit (Thermo Fisher Scientific, Rockford, IL, USA). Recombinant CBF1 (5 μg) was incubated with 40 fmol of biotin-labeled probe and 20 μl of reaction mixture containing 25 ng/μl Poly (dl-dC) binding buffer at 25° C. for 30 min. The reaction products were resolved on a 6% polyacrylamide gels. Probes bound to CBF1 were transferred to charged Hybond-N membrane and detected by western blotting with anti-biotin antibody (Abcam, Cambridge, MA, USA).

[2] = target: MBP (control) (UniProt P0AEX9 P0AEX9:27-396); assay: EMSA; His-MBP used as negative control; gel only in figure

Chain of CBF1 (P93835 whole entry, the tested form may be a part): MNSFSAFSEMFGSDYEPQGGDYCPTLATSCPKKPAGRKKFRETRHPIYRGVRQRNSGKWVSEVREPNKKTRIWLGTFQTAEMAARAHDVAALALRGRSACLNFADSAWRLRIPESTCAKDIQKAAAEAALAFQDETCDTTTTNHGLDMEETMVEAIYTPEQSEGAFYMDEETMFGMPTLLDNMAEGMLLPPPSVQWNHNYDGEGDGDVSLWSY

B1: COR15a promoter CRT/DRE probe (-275 to -253) (dsDNA)
DNA 1: ATTTCATGGCCGACCTGCTTTTT
DNA 2: AAAAAGCAGGTCGGCCATGAAAT
B1: binds [1]; no binding [2].
